Data as given in patent US20240376170A1 (BRIGHT PEAK THERAPEUTICS, published 2024).
Read-outs that look alike come from different tables or passages of the source. Bridges are numbered along the chain shown (N, C = ends). Primed or numbered codes have the meaning given here. [ ]: non-standard residue; d: D form. Ygp(4) = Tyr with amino-capped PEG8 (O-(8x polyethylene glycol-amino)-tyrosine); Yn3(4) = Tyr with azide-capped PEG9 (O-(9x polyethylene glycol-azido)-tyrosine); Ygp = O-(8x polyethylene glycol-amino)-tyrosine (Tyr, amino-capped PEG8); Yn3 = O-(9x polyethylene glycol-azido)-tyrosine (Tyr, azide-capped PEG9); cleavable peptide‑PEG9‑glutaryl = not defined here; Ygp″ = O-(8x polyethylene glycol-amino)-tyrosine; Yn3″ = O-(9x polyethylene glycol-azido)-tyrosine; PEG4′ = 4x polyethylene glycol; PEG9′ = 9x polyethylene glycol; hSer = N[C@@H](CCO)C(=O)O; Nle = CCCC[C@H](N)C(=O)O

Key:
Test in all cases: cell-based or functional assay
[1] = molecular target: T1, IL-2 receptor βγ complex (human, UniProt P14784 27-551; P31785 23-369)
T1 sequence (looked up) 1: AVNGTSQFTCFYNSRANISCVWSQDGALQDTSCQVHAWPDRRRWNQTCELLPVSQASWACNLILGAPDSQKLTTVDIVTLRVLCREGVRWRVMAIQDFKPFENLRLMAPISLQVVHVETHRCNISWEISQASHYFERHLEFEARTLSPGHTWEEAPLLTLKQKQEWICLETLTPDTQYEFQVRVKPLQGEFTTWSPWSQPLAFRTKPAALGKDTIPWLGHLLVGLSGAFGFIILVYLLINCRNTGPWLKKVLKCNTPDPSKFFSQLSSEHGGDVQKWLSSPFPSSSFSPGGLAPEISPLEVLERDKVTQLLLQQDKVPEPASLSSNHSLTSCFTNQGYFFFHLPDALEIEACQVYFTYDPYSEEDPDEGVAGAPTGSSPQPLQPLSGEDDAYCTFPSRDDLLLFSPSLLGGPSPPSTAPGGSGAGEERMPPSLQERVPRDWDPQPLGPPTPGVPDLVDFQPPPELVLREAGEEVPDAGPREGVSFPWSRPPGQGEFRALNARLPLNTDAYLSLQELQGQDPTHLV
T1 sequence (looked up) 2: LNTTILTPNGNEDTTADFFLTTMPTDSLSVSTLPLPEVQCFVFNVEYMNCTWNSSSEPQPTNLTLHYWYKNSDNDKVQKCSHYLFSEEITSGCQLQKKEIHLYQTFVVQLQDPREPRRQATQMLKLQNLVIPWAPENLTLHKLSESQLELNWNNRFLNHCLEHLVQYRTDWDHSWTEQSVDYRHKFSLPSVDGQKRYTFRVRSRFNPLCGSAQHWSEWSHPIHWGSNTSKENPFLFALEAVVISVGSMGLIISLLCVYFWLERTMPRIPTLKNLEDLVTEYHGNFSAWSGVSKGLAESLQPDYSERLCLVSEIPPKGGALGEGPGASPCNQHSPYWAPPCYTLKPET

[2] = molecular target: T1, IL-2 receptor βγ complex; remark: listed apart in the source
[3] = molecular target: T1, IL-2 receptor βγ complex; remark: listed apart in the source

Binder | Average EC50, pSTAT5 Assay (T cells) [1] | Average EC50, pSTAT5 Assay (T cells) [2] | Average EC50, pSTAT5 Assay in NK cells [3]
CMP-161, MMP2 cleaved molecule (ligand, not fully specified (bridges); ends and bridges not checked; also: MMP2 cleaved, site not given here) PLGLAGAPTSSSTKKTQLQLEHLLLDLQ[Nle]ILEGINNYKNPKLTR[Nle]L[hSer][Yn3(4)]KF[Ygp(4)][Nle]PKKATELKHLQCLEEELKPLEEVL[hSer]LAQSKNFHLRPRDLISNINVIVLELKGSETTF[hSer]CEYADETATIVEFLNRWITFSQSIISTLT | 3.59 nM |  | 
CMP-163, MMP2 cleaved molecule (ligand, not fully specified; ends and bridges not checked) APTSSSTKKTQLQLEHLLLDLQKILNGINNYKNPKLTR[Nle]L[hSer][Yn3(4)]KF[Ygp(4)][Nle]PKKATELKHLQCLEEELKPLEEVL[hSer]LAQSKNFHLRPRDLISNINVIVLELKGSETTF[hSer]CEYADETATIVEFLNRWITFSQSIISTLT |  | 0.76 nM | 
CMP-151 (ligand, linker N-23 via cleavable peptide‑PEG9‑glutaryl; reading uncertain) APTSSSTKKTQLQLEHLLLDLQKILNGINNYKNPKLTR[Nle]L[hSer][Yn3″]KF[Ygp″][Nle]PKKATELKHLQCLEEELKPLEEVL[hSer]LAQSKNFHLRPRDLISNINVIVLELKGSETTF[hSer]CEYADETATIVEFLNRWITFSQSIISTLT | 28.2 nM |  | 2.51 nM
CMP-162 (ligand, ends and bridges not checked; also: further groups not given here) APTSSSTKKTQLQLEHLLLDLQKILNGINNYKNPKLTR[Nle]L[hSer][Yn3(4)]KF[Ygp(4)][Nle]PKKATELKHLQCLEEELKPLEEVL[hSer]LAQSKNFHLRPRDLISNINVIVLELKGSETTF[hSer]CEYADETATIVEFLNRWITFSQSIISTLT | 2.79 nM |  | 
CMP-136 (ligand, bridge N-37; not fully specified (bridges); ends not checked) [PEG9′]PLGLAG[PEG9′]APTSSSTKKTQLQLEHLLLDLQ[Nle]ILNGIENYKNPKLTR[Nle]L[hSer][Yn3]KF[Ygp][Nle]PKKATELKHLQCLEEELKPLEEVL[hSer]LAQSKNFHLRPRDLISNINVIVLELKGSETTF[hSer]CEYADETATIVEFLNRWITFSQSIISTLT | 40.5 nM |  | 2.17 nM
CMP-162, MMP2 cleaved molecule (ligand, not fully specified; ends and bridges not checked; also: MMP2 cleaved, cleavage site and linker fragment on Lys23 side chain not given here) APTSSSTKKTQLQLEHLLLDLQKILNGINNYKNPKLTR[Nle]L[hSer][Yn3(4)]KF[Ygp(4)][Nle]PKKATELKHLQCLEEELKPLEEVL[hSer]LAQSKNFHLRPRDLISNINVIVLELKGSETTF[hSer]CEYADETATIVEFLNRWITFSQSIISTLT | 0.758 nM |  | 
CMP-138 (ligand, bridge (positions not given here); not fully specified (bridges); ends not checked) [PEG4′]SGGPGPAGMKGLPGS[PEG4′]APTSSSTKKTQLQLEHLLLDLQ[Nle]ILNGIENYKNPKLTR[Nle]L[hSer][Yn3]KF[Ygp][Nle]PKKATELKHLQCLEEELKPLEEVL[hSer]LAQSKNFHLRPRDLISNINVIVLELKGSETTF[hSer]CEYADETATIVEFLNRWITFSQSIISTLT | 20.1 nM |  | 1.88 nM
